From the DeepSol protein solubility set come the findings set out here.

The nature of the series: soluble on expression in E. coli; label from the status in PepcDB or PDB records.
On to “MGSDKIHHHHHHMKTPLVITALSLCLPFMAHAGSSFVEGDDILAGEVELGATLTTGNTDTSSFKGRLALKHELGNWENQYLLEGLYKEDTETVTAKRYIVGAQGDYLIDHDSYIFSNMNYEVDPFTGYEYSFTAASGYGHKFINDDRTKLKAEIGPGFIYQKLDSTLAAIEGYDTDKSVVAHAVINFETKLGDSSKFGQKLVMDMGEKIDARSETSLTANIVGALAMKFAVIVRYNSNPLDSKTSTDTETNMTLLYAF”, for which the “soluble on expression in E. coli” value is reported as “not soluble”. As for “MAHHHHHHVDDDDKMSLLDAHIPQLIASHTAFAAKAGLMRHTIGQAEQQAMSAQAFHQGESAAAFQGAHARFVAAAAKVNTLLDIAQANLGEAAGTYVAADAAAASSYTGF”, the “soluble on expression in E. coli” value is reported as “soluble”. For the sequence “SLCQEKHTHTHSQKHLKAVCNRLSRTIGHLSAIKRMVENDKDCSEILIQLAAVKAEVNNTAKVVLKEHLAHCMVHAIEENDIQSIEELNKAIDMFMK”, the “soluble on expression in E. coli” value is “soluble”. Take “MGSDKIHHHHHHMKGVLYISFLVCILLGCSDSDGLPDGGKDKTARTELEIVSASIVEGNTQTRADVPFTPGSSIALFCHGQAAETSYTPVNNRKYTLNSGDSKWTAESEATTIYLGSEKADVCGYYPYVEGTVGTADTLYNVRTTIPMDTQDYDPSKELYYVANQEVDAKRYFVEMHFKHAYSRLVLNIGVEDAYPATCSINSVALANDSLFRKAVIDITSGTVGIHPDDTEKQFRGGYNITKDLPYLLDSPDKKYQADLLMIPTKLLPDPFEPTKGLSVIVNVSGFPATVIIPIDDLSDFESGKKYVVSLKLRGIAIKSVTVTTTDWDEKRLNEGVDYEPLPQS”: the “soluble on expression in E. coli” value is given as “not soluble”. “MAQWSTMSTADRDFVVRFPTGTSDPLSDAEIQQYREEIDRLDKEILAAVKRRTEISRAIGKTRMGSGGTRLVHTREVAIINQFREEIGEEGPALAGILLRMGRGRLGEAR”: the “soluble on expression in E. coli” value was “not soluble”. As for “MAAVTELPKMNQELAGAVREGLELKKVETTEKNVLPTKEDVAEEKQHVERIHEIEHFDSTKLHSTPVKEKIVLPSADDIKQEKQHLELTDKINNFPSENLKKTETIEKNVLPSPTDVAREKTLQMAASFDKSALHHVETIVSTDVRVTEAQ”, the “soluble on expression in E. coli” value was “soluble”. “MTEYKLVVVGDGGVGKSALTIQLIQNHFVEEYDPTIEDSYRKQVVIDGETCLLDILDTAGQEEYSAMRDQYMRTGEGFLLVFAVNEAKSFENVANYREQIRRVKDSDDVPMVLVGNKCDLSSRSVDFRTVSETAKGYGIPNVDTSAKTRMGVDEAFYTLVREIRKHRERHDNNKPQKKKKCQIM”: the “soluble on expression in E. coli” value was “not soluble”. Turning to “MMHNPAHPGEVLKVAFLEEMGLTIQKLADHLHMTRASLSRVINGHASMSTELAIKLELAGFSKAKFWLDMQTNYNLWKTMQQAQPPISPLVSDSPQTSL”, the “soluble on expression in E. coli” value is “not soluble”.

With “MAHHHHHHMEDEKVGTANNDEKVTMSMPEEYMPKNISEILIGAVEEDRTYALKGDEPCDSYIKLGEIVHGTNEKTTQFTFPKNKVLCVQLEAINGNGYLWALLGVHKEKPQINPEEFPRKKITKSFFTNEISVTQPKAIQKNTSNNGGDISPNSSGYGKPRGSEHLGGFVGGASTLQSMVKAHKAGTFYIVYSYYRPFDPTASANTKILQLTVS”, the “soluble on expression in E. coli” value is listed as “soluble”.

In the case of “MRCMTLPAYDIAILGAGPVGRVLALLLARLTPQPQRIALLQGGAGLPPTPAGTLGPAADPRVLALNHGSRVLLESLRAWPAHAAEIRHIHVSQRGRLGRTVIDREDFDVPQLGNVVAYAALHAQLEQAVQDCGVTVLSGPPARVDGQDGEGLTVRQGDAALHCRLAVQCDGAGGSDVRRDYAQHAVLTSAHATLPRSGWAWERFTNEGPLAMLPHPQTPEAYSVVWCCAPPRARRLAGLDDEAFSRELTEAFGTRLGRLRSAAPRHVFPLELKARHAQAHGRLATIGNAAQTLHPVAGQGLNLGLRDAAQLAHALPDWLAAPQADPSPLLATFARARLADRWVTAGLTDLMPRIFATGLAPVEHACGLALLGLDIAAPLRAPLARHLLQGLRVLEHHHHHH”, the “soluble on expression in E. coli” value is “soluble”.

Take “MEYFMSGKSIFDKLWDRHVITGDEGQPQLMYVDQHYIHEVTSPQAFQGLRDAGRKVRRPDLTFGTFDHNVPTVNIFDIRDAISKAQIDKLAENVIEFGIDNASHGSDKQGIVHMVGPETGRTQPGKFIVCGDSHTATHGAFGTIAFGIGTSEVEHVFATQTLWQVKPKK”: the “soluble on expression in E. coli” value was “not soluble”. “MIGDGKLLASAAWDAQSLNELKAKAGQDPAANIRPVARQVEGMFVQMMLKSMREALPKDGLFSSDQTRLYTSMYDQQIAQQMTAGKGLGLADMMVKQMTSGQTMPADDAPQVPLKFSLETVNSYQNQALTQLVRKAIPKTPDSSDAPLSGDSKDFLARLSLPARLASEQSGVPHHLILAQAALESGWGQRQILRENGEPSYNVFGVKATASWKGPVTEITTTEYENGEAKKVKAKFRVYSSYLEALSDYVALLTRNPRYAAVTTAATAEQGAVALQNAGYATDPNYARKLTSMIQQLKAMSEKVSKTYSANLDNLF”: the “soluble on expression in E. coli” value is “not soluble”. “MGSDKIHHHHHHMNLEEVLNYRRSVRVFDKTKPLDPEKVKHCLELATLAPNSSNMQLWEFYQVIQPELLAKISKACLDQTATSTASEVVVFVTRQDLYRIRAKFVLDFERGNVRRNSPKERQEKRIKDRELYYGKLMPFLYARFFRILGLLRSVLAKAIGLFRPIVREVSESDMRVVVHKSCALAAQTFMIAMANEGYDTCPLEGFDSKQMKKLLKLPHGAEVNMVIACGIRDGNKGIWGERGRVPFDEVYHRV”: the “soluble on expression in E. coli” value was “not soluble”. For the sequence “MGSDKIHHHHHHMTWSATWRLSLELRQLRYLVGVVDAGSVSRAAQSLHVAQPALSAQIARLEEELGARLLIRSVRGVVPTEAGTAVLRQARLILKQVDAIAELAHEADADPTGSVSLGLPWTVRSVVGLPLLHQVRERLPQVRLEIIEGPSPALAMQTAQGKLDLAVVFENTPDNSLVLKPLATESLLLVGQRGSLVGRHNLKLEELAGLPLLMLSRPNGVREDIERQCAKRGIRLKIVAEINAPSLLIDAVRGGLGYSVLPACGIEQACRDGLLDAITLEGGSMQRTAHLGTSKLFALSRAAEHTAALLQESVAHAIGDRRWQATSPNEAD”, the “soluble on expression in E. coli” value is “not soluble”. To “MGSDKIHHHHHHMTSMEFKIKRDGLALQARLETPAAPSSTLVILMHGFTADMGYDTTQFVPQLAQALVAHGLAVLRFDFNGHGCSEGRFQDMTVINEIADAKAVLDEALTLHYDHIVLAGHSQGGVVASMLAGYYPDVVDKLILMAPAATLKSDAQQGVLQGATYDPQHIPAYLNIRDGLKVGGFYLRTAQQLPIYEVAQQYAGSVTLIHVTADTVVSPQASEKYHEVYQHSQLHWVQDGGHRFSGDARATAIQLALAAFK” belongs “not soluble”; to “RNQVEHEAKVSLAKSFGAGIAHEMRNPLSGLCTSIDVIQSVLPNKKAMGEKDQYVMSGEDVTLLREVSEDAMNIIHSGNETIDLLLTSIDENRVSRSSFKRYSAQSVVEKAIESFSYKRSTDRFAISFDARSEFDFLGSDTLLKYVMYNLFKNAFHHRSSDEFHIHVSMQSNDTANQIVVTDNGSGIAPDVIRHIFQDFYTTGKSGSYGLGLPFCKKVMRSFGGNIKCISQPGEWSQFTLTFPPITSDTVTEIKDELTKMKSILLVSNQDIIVQKMADISRFMGFDVTVLDVKSVFKKKEYEFEFDLIFVDVESLDVLENQLDRIESLLSFTEARVVYLFEHKPAQRAKKVGHDPIWVETQAWLLNTKATIERLLYDSTYISSTLPSAPL”, “not soluble”; to “MSLSFHEIRFPASLSFGSVGGPERRTDVVTLANGFEERNTPWAHSRRRYDAGMGMRSLDDIEALIAFFEARQGQIFGFRWKDWSDYKSARPTAEVDFRDQVIGLGDGVQTGFQLLKSYRSGDSIYPRPIAKPVDGTVRMGLGQEEIKEGIDFTLDPTTGMVVLSHPPENGIEVVAGFEFDVPVRFDTDRILTSVASFQAGDVPNVPVVEVRAEGHHHHHH”, “soluble”. To “MKKIAIFGSRHKSEQGASIKALILKLEEAGTPLYIERKFLSFLKQDLDFHPAICGVIDTLPEHIDYVICMGGDGTFLRTAHQIGVSQIPVLGVNTGRLGFLTDVDCHEASELITRLLDGDFTIETRSLLEVTEDNGSSPSYALNEAAILKRETGSMIRVNACLNDDYLAAYDADGLVVATPSGSTAYSLSGNGPIIMPACRNFVLTPIAPHSLNMRPLVVPDDTVIRLEVDSRSRNYLLVLDGRTRTLPCDTSILLKRAPHTLRMIRLRPHSFAETLRRKLMWGAAVRLEHHHHHH” belongs “soluble”; to “MGSDKIHHHHHHMPNVNLDALIPREDFEVIENNSRASSFNQNVSVKDLEKGEFFYAGLRKPDFQRETSDWTDEQLCEFIQSFIDGDLIPAVILWNSGPYNFVIDGAHRLGALISWINDDYGDGHISQKFFNNEIDDEQKDIANKTRERIKNTVKPYSDYKKVILDSSDCDRGILEKALSLGRTSIQLQWVTGGAEKAELSFFKINQKASKINDTEIELLKSRRKAFAIASRAIIRAGTGHQYWSKFDNDVMQNIETMAKEIHSLIFLPKVSGAVRTLDLPLVKKHNSPQTNSFIFDLVKKCNNVPVNTIKIDDDDNGKLTVEYLKNVRKFLRRINSSHPSSLGLHPLVYFYNKRGNHIYSAILAWVDTIVTIEKTKVSLSSFLFIRSDLEKFLIKYKHFISGVNAKYGSGVKSYKHILKINSIIINQLQKRESEKYIVDSILNEYGFLSESDDVNVTSARFSTDIKSQIYIQETLPKTSTCSHCHGFIHQNSISFDHIVRKQDGGKGNVGNGALMHPYCNTSEKN”, “not soluble”. Regarding “MSLSGDLIDGLRDLNVLVVQPHDGSTEELLKQIGRIGCNATAVWPFPQSIPDGTDMIFMEITHPLDANAVRLLGVESVDAPTVVGIIAYENPSVLKGIIDLKIDTVLAKPIRPFGVLSHMLMARSVCLARRRDEEELQKLRRKIQAIQKIADAKFILMRHHSINETEAYKIIRSQAMAKRTSTLEIAQSVINAESILSGMAPHDLTARMQSQTEGHHHHHH”, the “soluble on expression in E. coli” value is reported as “not soluble”. As to “TKIAMANFKSAMPIFKSHAYLKELEKTLKPQHFDRVFVFPDFFGLLPNSFLHFTLGVQNAYPRDCGAFTGEITSKHLEELKIHTLLIGHSERRTLLKESPSFLKEKFDFFKSKNFKIVYCIGEELTTREKGFKAVKEFLSEQLENIDLNYPNLVVAYEPIWAIGTKKSASLEDIYLTHGFLKQILNQKTPLLYGGSVNTQNAKEILGIDSVDGLLIGSASWELENFKTIISFL”, the “soluble on expression in E. coli” value is given as “soluble”. On to “EGFYRHQTQSFSFMVNNVQVVFPSSTSKPWQGLASRRQIDIPQEKVDMIKQSGFVQQASSVYAKWDANITNLKGQNLSSTVSGIDTSYFPLIQRKLQSGSRNLSPSDMKNHTRVAVLGDQIAQMGGIQIGDRLKVNGIPFLVIGITVGEDTGISFGDSRTVFIPQTTYRDLWDAKPWMVLMKPRDGMDAPSFRQNIVNFFAKQLHFDPSDKDAVELPDFSEGAAVISGILRGIQI”, for which the “soluble on expression in E. coli” value was “not soluble”. For the sequence “TDKVTDADLETLRKLQEEFATELAISRGRVDALEARSADIQAQQFSPNVVLGGQTIFGLAGGFGGNRPGDGEANTIFTYLTQLQLASSFTGKDRFRVGLISGNAANNSFENLQAFNTNMARLAWQGNYDNQVSINSVEYRVAGLGDRVVFTFKPVGFSLGSVLSPNSIYADAGQGAISAFAGSTPILRIGNLDAGLGFDWLLSDEIRLQFAYGTRGSSDSNQGLFGADHSALGLQFLYKPTPSLITGLAYINAYSSDGHLDTGTGSSNADTSGGINEPSQIHALNASMRWQLTNKLVLGAWGGVMVTDSLKSDAVVLSSTYTVSLGIYDPFGRKGDLFGFLYGLPPKLNNGVLIPTADTGNSTHYEVFYRYLVNDNIAITPGFFLVTDPGHISSNNDIFIGAIRTTFNF”, the “soluble on expression in E. coli” value is “not soluble”.
